Three molecules from PMC5669925, “Tumor-expressed immune checkpoint B7x promotes cancer progression and antigen-specific CD8 T cell exhaustion and suppressive innate immune cells” (Oncotarget, 2017) can be followed below.

Assay [1] addresses PD-1 on labeled cells (intercellular conjugate assay) (UniProt Q15116). The experiment in a line: intercellular conjugate assay; two cell populations labeled with CFSE or Violet Cell Trace, 2 x 10^5 of each mixed in FACS buffer, 45 minutes at 37 degrees Celsius; co-localization read by FACS. (Flow cytometry measures light scatter and fluorescence of single cells or particles in a stream.)

The target in assay [2] is T1, Recombinant human NRP1 (R&D) (human, UniProt O14786 22-856).
T1 construct: Neuropilin-1 (NRP1), human; Soluble analyte in BLI; no catalogue number or tag is printed; also called Rh-NRP1; source: bought: R&D systems
T1 sequence (looked up): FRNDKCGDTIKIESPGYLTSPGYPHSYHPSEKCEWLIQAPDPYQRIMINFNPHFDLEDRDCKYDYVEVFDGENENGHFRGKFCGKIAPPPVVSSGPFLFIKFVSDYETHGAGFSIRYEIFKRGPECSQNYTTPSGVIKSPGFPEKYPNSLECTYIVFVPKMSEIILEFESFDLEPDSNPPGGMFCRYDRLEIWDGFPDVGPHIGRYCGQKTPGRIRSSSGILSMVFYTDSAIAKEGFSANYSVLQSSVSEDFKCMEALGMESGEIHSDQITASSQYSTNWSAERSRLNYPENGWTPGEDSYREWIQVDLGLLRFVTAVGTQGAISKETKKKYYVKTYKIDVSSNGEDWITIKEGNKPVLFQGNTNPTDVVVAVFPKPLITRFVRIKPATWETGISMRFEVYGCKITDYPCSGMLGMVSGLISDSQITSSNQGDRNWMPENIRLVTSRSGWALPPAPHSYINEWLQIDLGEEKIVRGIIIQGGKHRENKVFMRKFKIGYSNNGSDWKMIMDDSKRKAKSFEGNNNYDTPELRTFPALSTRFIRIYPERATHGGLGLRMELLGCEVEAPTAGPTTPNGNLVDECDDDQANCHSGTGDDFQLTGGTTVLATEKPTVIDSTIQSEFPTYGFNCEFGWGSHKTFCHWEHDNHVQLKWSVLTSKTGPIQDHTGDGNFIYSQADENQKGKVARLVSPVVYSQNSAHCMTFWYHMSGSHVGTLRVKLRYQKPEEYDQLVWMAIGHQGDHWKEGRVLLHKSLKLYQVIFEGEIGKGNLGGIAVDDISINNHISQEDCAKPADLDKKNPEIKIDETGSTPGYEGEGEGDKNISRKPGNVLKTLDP
Description: BLI; BLItz system (ForteBio); human IgG fusion protein (25 ug/mL, 2 min) captured on anti-human IgG Fc capture sensors; protein analytes in 1x Kinetic Buffer (ForteBio). As to conditions: both partners purified.

PD-1 on labeled cells (intercellular conjugate assay), sequence (Q15116 25-288): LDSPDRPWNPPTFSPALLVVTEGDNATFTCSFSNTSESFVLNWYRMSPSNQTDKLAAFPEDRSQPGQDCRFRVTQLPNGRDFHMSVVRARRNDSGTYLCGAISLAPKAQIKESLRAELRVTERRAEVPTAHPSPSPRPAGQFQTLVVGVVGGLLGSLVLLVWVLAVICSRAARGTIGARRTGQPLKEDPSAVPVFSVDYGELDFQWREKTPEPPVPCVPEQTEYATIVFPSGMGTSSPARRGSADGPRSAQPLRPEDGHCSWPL

In turn, “PD-L2 on labeled cells (intercellular conjugate assay) (from UniProt Q9BQ51 20-273) (ligand)” came in with a percent co-localization in assay [1] of 24%.
Still for that read-out and setting: next, “PD-L1 on labeled cells (intercellular conjugate assay) (from UniProt Q9NZQ7 19-290) (ligand)”: 18%.

B1: Human Sema3a-hIgG1 (R&D) (Fc fusion, UniProt Q14563 21-771, looked up)
chain: NYQNGKNNVPRLKLSYKEMLESNNVITFNGLANSSSYHTFLLDEERSRLYVGAKDHIFSFDLVNIKDFQKIVWPVSYTRRDECKWAGKDILKECANFIKVLKAYNQTHLYACGTGAFHPICTYIEIGHHPEDNIFKLENSHFENGRGKSPYDPKLLTASLLIDGELYSGTAADFMGRDFAIFRTLGHHHPIRTEQHDSRWLNDPKFISAHLISESDNPEDDKVYFFFRENAIDGEHSGKATHARIGQICKNDFGGHRSLVNKWTTFLKARLICSVPGPNGIDTHFDELQDVFLMNFKDPKNPVVYGVFTTSSNIFKGSAVCMYSMSDVRRVFLGPYAHRDGPNYQWVPYQGRVPYPRPGTCPSKTFGGFDSTKDLPDDVITFARSHPAMYNPVFPMNNRPIVIKTDVNYQFTQIVVDRVDAEDGQYDVMFIGTDVGTVLKVVSIPKETWYDLEEVLLEEMTVFREPTAISAMELSTKQQQLYIGSTAGVAQLPLHRCDIYGKACAECCLARDPYCAWDGSACSRYFPTAKRRTRRQDIRNGDPLTHCSDLHHDNHHGHSPEERIIYGVENSSTFLECSPKSQRALVYWQFQRRNEERKEEIRVDDHIIRTDQGLLLRSLQQKDSGNYLCHAVEHGFIQTLLKVTLEVIDTEHLEELLHKDDDGDGSKTKEMSNSMTPSQKVWYRDFMQLINHPNLNTMDEFCEQVWKRDRKQRRQRPGHTPGNSNKWKHLQENKKGRNRRTHEFERAPRSV
notes: Semaphorin 3a (Sema3a), human; Commercial Fc fusion; no catalogue number; also called Sema3a-Ig; Semaphorin3a-hIgG1; source: bought: R&D systems
As to B1, in assay [2], the binding result is on record as “binds”.
